Measurements as given in paper PMC4860839, “Structures of the APC–ARM domain in complexes with discrete Amer1/WTX fragments reveal that it uses a consensus mode to recognize its binding partners” (Cell Discovery, 2015).

B1: pBTM-APC–ARM (residues 308–789), two-hybrid bait [human] / Amer1-A2 (murine, residues 388–551), two-hybrid prey [murine] (parent complex)
chain 1: LGTKVEMVYSLLSMLGTHDKDDMSRTLLAMSSSQDSCISMRQSGCLPLLIQLLHGNDKDSVLLGNSRGSKEARARASAALHNIIHSQPDDKRGRREIRVLHLLEQIRAYCETCWEWQEAHEPGMDQDKNPMPAPVEHQICPAVCVLMKLSFDEEHRHAMNELGGLQAIAELLQVDCEMYGLTNDHYSITLRRYAGMALTNLTFGDVANKATLCSMKGCMRALVAQLKSESEDLQQVIASVLRNLSWRADVNSKKTLREVGSVKALMECALEVKKESTLKSVLSALWNLSAHCTENKADICAVDGALAFLVGTLTYRSQTNTLAIIESGGGILRNVSSLIATNEDHRQILRENNCLQTLLQHLKSHSLTIVSNACGTLWNLSARNPKDQEALWDMGAVSMLKNLIHSKHKMIAMGSAAALRNLMANRPAKYKDANIMSPGSSLPSLHVRKQKALEAELDAQHLSETFDNIDNLSPKASHRSKQ
chain 2: EEEEEEEEEEEEEEEEEEEEEELLEDEEEVKDGEENDDLEYLWASAQIYPRFNMNLGYHTAISPSHQGYMLLDPVQSYPNLGLGELLTPQSDQQESAPNSDEGYYDSTTPGFEDDSGEALGLAHRDCLPRDSYSGDALYEFYEPDDSLEHSPPGDDCLYDLRGR
B2: Amer1-A2 (human, residues 380–531), two-hybrid prey [human] / pBTM-APC–ARM (residues 308–789), two-hybrid bait [human] (parent complex)
chain 1: EEEEEEEEVELEEEEEEVKEEEEDDDLEYLWETAQMYPRPNMNLGYHPTTSPGHHGYMLLDPVRSYPGLAPGELLTPQSDQQESAPNSDEGYYDSTTPGFEDDSGEALGLVRRDCLPRDSYSGDALYEFYEPDDSLENSPPGDDCLYDLHGR
chain 2: B1 chain 1
B3: Amer1-A4 (human, residues 337–455), two-hybrid prey [human] / pBTM-APC–ARM (residues 308–789), two-hybrid bait [human] (parent complex)
chain 1: MDSMTDSMASGGQRANRDGTKRSSCLVTYQGGGEEMALPDDDDEEEEEEEEVELEEEEEEVKEEEEDDDLEYLWETAQMYPRPNMNLGYHPTTSPGHHGYMLLDPVRSYPGLAPGELLT
chain 2: B1 chain 1
B4: Amer1-A1 (human, residues 280–369), two-hybrid prey [human] / pBTM-APC–ARM (residues 308–789), two-hybrid bait [human] (parent complex)
chain 1: SLEEPHSPETGEKVVAGEVNPPNGPVGDPLSLLFGDVTSLKSFDSLTGCGDIIAEQDMDSMTDSMASGGQRANRDGTKRSSCLVTYQGGG
chain 2: B1 chain 1

Variants of: B1
Experiment: yeast two-hybrid assay (relative β-galactosidase reporter activity); parent: 100

| Variant | percent of parent [%] |
| --- | --- |
| chain 1 LGTKVEMVYSLLSMLGTHDKDDMSRTLLAMSSSQDSCISMRQSGCLPLLIQLLHGNDKDSVLLGNSRGSKEARARASAALHNIIHSQPDDKRGRREIRVLHLLEQIRAYCETCWEWQEAHEPGMDQDKNPMPAPVEHQICPAVCVLMKLSFDEEHRHAMNELGGLQAIAELLQVDCEMYGLTNDHYSITLRRYAGMALTNLTFGDVANEATLCSMKGCMRALVAQLKSESEDLQQVIASVLRNLSWRADVNSKKTLREVGSVKALMECALEVKKESTLKSVLSALWNLSAHCTENKADICAVDGALAFLVGTLTYRSQTNTLAIIESGGGILRNVSSLIATNEDHRQILRENNCLQTLLQHLKSHSLTIVSNACGTLWNLSARNPKDQEALWDMGAVSMLKNLIHSKHKMIAMGSAAALRNLMANRPAKYKDANIMSPGSSLPSLHVRKQKALEAELDAQHLSETFDNIDNLSPKASHRSKQ [chain 1 K209E] | 0.27 |
| chain 1 LGTKVEMVYSLLSMLGTHDKDDMSRTLLAMSSSQDSCISMRQSGCLPLLIQLLHGNDKDSVLLGNSRGSKEARARASAALHNIIHSQPDDKRGRREIRVLHLLEQIRAYCETCWEWQEAHEPGMDQDKNPMPAPVEHQICPAVCVLMKLSFDEEHRHAMNELGGLQAIAELLQVDCEMYGLTNDHYSITLRRYAGMALTNLTFGDVANKATLCSMKGCMRALVAQLKSESEDLQQVIASVLRNLSWRADVNSKKTLREVGSVKALMECALEVKKESTLKSVLSALWNLSAHCTENKADICAVDGALAFLVGTLTYRSQTNTLAIIESGGGILRNVSSLIATNEDHRQILRENNCLQTLLQHLKSHSLTIVSNACGTLWNLSARNPKDQEALWDMGAVSMLKNLIHSKHKKIAMGSAAALRNLMANRPAKYKDANIMSPGSSLPSLHVRKQKALEAELDAQHLSETFDNIDNLSPKASHRSKQ [chain 1 M410K] | 87.8 |
| chain 1 LGTKVEMVYSLLSMLGTHDKDDMSRTLLAMSSSQDSCISMRQSGCLPLLIQLLHGNDKDSVLLGNSRGSKEARARASAALHNIIHSQPDDKRGRREIRVLHLLEQIRAYCETCWEWQEAHEPGMDQDKNPMPAPVEHQICPAVCVLMKLSFDEEHRHAMNELGGLQAIAELLQVDCEMYGLTNDHYSITLRRYAGMALTNLTFGDVANKATLCSMKGCMRALVAQLKSESEDLQQVIASVLRKLSWRADVNSKKTLREVGSVKALMECALEVKKESTLKSVLSALWNLSAHCTENKADICAVDGALAFLVGTLTYRSQTNTLAIIESGGGILRNVSSLIATNEDHRQILRENNCLQTLLQHLKSHSLTIVSNACGTLWNLSARNPKDQEALWDMGAVSMLKNLIHSKHKMIAMGSAAALRNLMANRPAKYKDANIMSPGSSLPSLHVRKQKALEAELDAQHLSETFDNIDNLSPKASHRSKQ [chain 1 N243K] | 0.12 |
| chain 1 LGTKVEMVYSLLSMLGTHDKDDMSRTLLAMSSSQDSCISMRQSGCLPLLIQLLHGNDKDSVLLGNSRGSKEARARASAALHNIIHSQPDDKRGRREIRVLHLLEQIRAYCETCWEWQEAHEPGMDQDKNPMPAPVEHQICPAVCVLMKLSFDEEHRHAMNELGGLQAIAELLQVDCEMYGLTNDHYSITLRRYAGMALTNLTFGDVANKATLCSMKGCMRALVAQLKSESEDLQQVIASVLRNLSWRADVNSKKTLREVGSVKALMECALEVKKESTLKSVLSALWNLSAHCTENKADICAVDGALAFLVGTLTYRSQTNTLAIIESGGGILRNVSSLIATNEDHRQILRENNCLQTLLQHLKSHSLTIVSNACGTLWNLSARNPKDQEALWDMGAVSMLKNLIHSKHKMIAMGSAAALENLMANRPAKYKDANIMSPGSSLPSLHVRKQKALEAELDAQHLSETFDNIDNLSPKASHRSKQ [chain 1 R420E] | 75.2 |

Other lines, results leading:

| percent of parent [%] | Variant |
| --- | --- |
| 0.06 | chain 1 LGTKVEMVYSLLSMLGTHDKDDMSRTLLAMSSSQDSCISMRQSGCLPLLIQLLHGNDKDSVLLGNSRGSKEARARASAALHNIIHSQPDDKRGRREIRVLHLLEQIRAYCETCWEWQEAHEPGMDQDKNPMPAPVEHQICPAVCVLMKLSFDEEHRHAMNELGGLQAIAELLQVDCEMYGLTNDHYSITLRRYAGMALTNLTFGDVANKATLCSMKGCMRALVAQLKSESEDLQQVIASVLENLSWRADVNSKKTLREVGSVKALMECALEVKKESTLKSVLSALWNLSAHCTENKADICAVDGALAFLVGTLTYRSQTNTLAIIESGGGILRNVSSLIATNEDHRQILRENNCLQTLLQHLKSHSLTIVSNACGTLWNLSARNPKDQEALWDMGAVSMLKNLIHSKHKMIAMGSAAALRNLMANRPAKYKDANIMSPGSSLPSLHVRKQKALEAELDAQHLSETFDNIDNLSPKASHRSKQ [chain 1 R242E] |
| 0.33 | chain 1 LGTKVEMVYSLLSMLGTHDKDDMSRTLLAMSSSQDSCISMRQSGCLPLLIQLLHGNDKDSVLLGNSRGSKEARARASAALHNIIHSQPDDKRGRREIRVLHLLEQIRAYCETCWEWQEAHEPGMDQDKNPMPAPVEHQICPAVCVLMKLSFDEEHRHAMNELGGLQAIAELLQVDCEMYGLTNDHYSITLRRYAGMALTKLTFGDVANKATLCSMKGCMRALVAQLKSESEDLQQVIASVLRNLSWRADVNSKKTLREVGSVKALMECALEVKKESTLKSVLSALWNLSAHCTENKADICAVDGALAFLVGTLTYRSQTNTLAIIESGGGILRNVSSLIATNEDHRQILRENNCLQTLLQHLKSHSLTIVSNACGTLWNLSARNPKDQEALWDMGAVSMLKNLIHSKHKMIAMGSAAALRNLMANRPAKYKDANIMSPGSSLPSLHVRKQKALEAELDAQHLSETFDNIDNLSPKASHRSKQ [chain 1 N200K] |

Variants of: B2
Experiment: as above

| percent of parent [%] | Variant |
| --- | --- |
| 0.28 | chain 1 EEEEEEEEVELEEEEEEVKEEEEDDDLEYLWETAQMYPRPNMNLGYHPTTSPGHHGYMLLDPVRSYPGLAPGELLTPQSDQQESAPNSDEGYYDSTTPGFEDDSGEALGLVRRDCLPRKSYSGDALYEFYEPDDSLENSPPGDDCLYDLHGR [chain 1 D119K] |
| 0.17 | chain 1 EEEEEEEEVELEEEEEEVKEEEEDDDLEYLWETAQMYPRPNMNLGYHPTTSPGHHGYMLLDPVRSYPGLAPGELLTPQSDQQESAPNSDEGYYDSTTPGFEDDSGEALGLVRRDCLPRDSYSGKALYEFYEPDDSLENSPPGDDCLYDLHGR [chain 1 D124K] |

Variants of: B3
Experiment: as above

| percent of parent [%] | Variant |
| --- | --- |
| 0.85 | chain 1 MDSMTDSMASGGQRANRDGTKRSSCLVTYQGGGKEMALPDDDDEEEEEEEEVELEEEEEEVKEEEEDDDLEYLWETAQMYPRPNMNLGYHPTTSPGHHGYMLLDPVRSYPGLAPGELLT [chain 1 E34K] |

Variants of: B4
Experiment: as above

| percent of parent [%] | Variant |
| --- | --- |
| 31.9 | chain 1 SLEEPHSPETGEKVVAGEVNPPNGPVGDPLSLLFGDVTSLKSFKSLTGCGDIIAEQDMDSMTDSMASGGQRANRDGTKRSSCLVTYQGGG [chain 1 D44K] |
| 65.2 | chain 1 SLEEPHSPETGEKVVAGEVNPPNGPVGDPLSLLFGDVTSLKSFDSLRGCGDIIAEQDMDSMTDSMASGGQRANRDGTKRSSCLVTYQGGG [chain 1 T47R] |
| 0 | chain 1 SLEEPHSPETGEKVVAGEVNPPNGPVGDPLSLLFGDVTSLKSFDSLTGCGKIIAEQDMDSMTDSMASGGQRANRDGTKRSSCLVTYQGGG [chain 1 D51K] |
